Changes are numbered by the printed parent chain.
B1: UGT76G1var25: UGT76G1 variant, mutations T284L_Q342K_Y397Q (protein, UniProt Q6VAB4 1-458, looked up, variant T284L Q342K Y397Q)
UDP-glycosyltransferase 76G1: MENKTETTVRRRRRIILFPVPFQGHINPILQLANVLYSKGFSITIFHTNFNKPKTSNYPHFTFRFILDNDPQDERISNLPTHGPLAGMRIPIINEHGADELRRELELLMLASEEDEEVSCLITDALWYFAQSVADSLNLRRLVLMTSSLFNFHAHVSLPQFDELGYLDPDDKTRLEEQASGFPMLKVKDIKSAYSNWQILKEILGKMIKQTKASSGVIWNSFKELEESELETVIREIPAPSFLIPLPKHLTASSSSLLDHDRTVFQWLDQQPPSSVLYVSFGSLSEVDEKDFLEIARGLVDSKQSFLWVVRPGFVKGSTWVEPLPDGFLGERGRIVKWVPQKEVLAHGAIGAFWTHSGWNSTLESVCEGVPMIFSDFGLDQPLNARYMSDVLKVGVQLENGWERGEIANAIRRVMVDEEGEYIRQNARVLKQKADVSLMKGGSSYESLESLVSYISSL
B2: UGT76G1var39: UGT76G1 variant, mutations F22Y_F41L_V366I (protein, UniProt Q6VAB4 1-458, looked up, variant F22Y F41L V366I)
UDP-glycosyltransferase 76G1: B1 UDP-glycosyltransferase 76G1 with F22Y, F41L, L284T, K342Q, V366I, Q397Y
B3: UGT76G1var32: UGT76G1 variant, mutations A239V_L243A_S375M (protein, UniProt Q6VAB4 1-458, looked up, variant A239V L243A S375M)
UDP-glycosyltransferase 76G1: B1 UDP-glycosyltransferase 76G1 with A239V, L243A, L284T, K342Q, S375M, Q397Y
B4: UGT76G1var33: UGT76G1 variant, mutations A33G_R334H_Y397Q (protein, UniProt Q6VAB4 1-458, looked up, variant A33G R334H Y397Q)
UDP-glycosyltransferase 76G1: B1 UDP-glycosyltransferase 76G1 with A33G, L284T, R334H, K342Q
B5: UGT76G1var30: UGT76G1 variant, mutations I43V_E224A_S241I (protein, UniProt Q6VAB4 1-458, looked up, variant I43V E224A S241I)
UDP-glycosyltransferase 76G1: B1 UDP-glycosyltransferase 76G1 with I43V, E224A, S241I, L284T, K342Q, Q397Y
B6: UGT76G1var28: UGT76G1 variant, mutations L243A_S274G_P382M (protein, UniProt Q6VAB4 1-458, looked up, variant L243A S274G P382M)
UDP-glycosyltransferase 76G1: B1 UDP-glycosyltransferase 76G1 with L243A, S274G, L284T, K342Q, P382M, Q397Y
B7: UGT76G1var42: UGT76G1 variant, mutations T263S_Q266S_R334H (protein, UniProt Q6VAB4 1-458, looked up, variant T263S Q266S R334H)
UDP-glycosyltransferase 76G1: B1 UDP-glycosyltransferase 76G1 with T263S, Q266S, L284T, R334H, K342Q, Q397Y
B8: UGT76G1var43: UGT76G1 variant, mutations S241I_P272A_V279I (protein, UniProt Q6VAB4 1-458, looked up, variant S241I P272A V279I)
UDP-glycosyltransferase 76G1: B1 UDP-glycosyltransferase 76G1 with S241I, P272A, V279I, L284T, K342Q, Q397Y
B9: UGT76G1var1: UGT76G1 variant, mutations E224A_F314S_R334K (protein, UniProt Q6VAB4 1-458, looked up, variant E224A F314S R334K)
UDP-glycosyltransferase 76G1: B1 UDP-glycosyltransferase 76G1 with E224A, L284T, F314S, R334K, K342Q, Q397Y
B10: UGT76G1var45: UGT76G1 variant, mutations V279I_D301N_S389E (protein, UniProt Q6VAB4 1-458, looked up, variant V279I D301N S389E)
UDP-glycosyltransferase 76G1: B1 UDP-glycosyltransferase 76G1 with V279I, L284T, D301N, K342Q, S389E, Q397Y
B11: UGT76G1var26: UGT76G1 variant, mutations S241I_F265L_F377C (protein, UniProt Q6VAB4 1-458, looked up, variant S241I F265L F377C)
UDP-glycosyltransferase 76G1: B1 UDP-glycosyltransferase 76G1 with S241I, F265L, L284T, K342Q, F377C, Q397Y
B12: UGT76G1var36: UGT76G1 variant, mutations F265L_L379A_V396F (protein, UniProt Q6VAB4 1-458, looked up, variant F265L L379A V396F)
UDP-glycosyltransferase 76G1: B1 UDP-glycosyltransferase 76G1 with F265L, L284T, K342Q, L379A, V396F, Q397Y
B13: UGT76G1var2: UGT76G1 variant, mutations S274G_T284I_L379G (protein, UniProt Q6VAB4 1-458, looked up, variant S274G T284I L379G)
UDP-glycosyltransferase 76G1: B1 UDP-glycosyltransferase 76G1 with S274G, L284I, K342Q, L379G, Q397Y
B14: UGT76G1var27: UGT76G1 variant, mutations A239I_L379A_V394I (protein, UniProt Q6VAB4 1-458, looked up, variant A239I L379A V394I)
UDP-glycosyltransferase 76G1: B1 UDP-glycosyltransferase 76G1 with A239I, L284T, K342Q, L379A, V394I, Q397Y
B15: UGT76G1var34: UGT76G1 variant, mutations I43V_T284I_I295T (protein, UniProt Q6VAB4 1-458, looked up, variant I43V T284I I295T)
UDP-glycosyltransferase 76G1: B1 UDP-glycosyltransferase 76G1 with I43V, L284I, I295T, K342Q, Q397Y
B16: UGT76G1var29: UGT76G1 variant, mutations F22Y_V279I_N409R (protein, UniProt Q6VAB4 1-458, looked up, variant F22Y V279I N409R)
UDP-glycosyltransferase 76G1: B1 UDP-glycosyltransferase 76G1 with F22Y, V279I, L284T, K342Q, Q397Y, N409R
B17: UGT76G1var41: UGT76G1 variant, mutations L246F_A385T_K393G (protein, UniProt Q6VAB4 1-458, looked up, variant L246F A385T K393G)
UDP-glycosyltransferase 76G1: B1 UDP-glycosyltransferase 76G1 with L246F, L284T, K342Q, A385T, K393G, Q397Y
B18: UGT76G1var37: UGT76G1 variant, mutations E229A_L379G_I407V (protein, UniProt Q6VAB4 1-458, looked up, variant E229A L379G I407V)
UDP-glycosyltransferase 76G1: B1 UDP-glycosyltransferase 76G1 with E229A, L284T, K342Q, L379G, Q397Y, I407V
B19: UGT76G1var35: UGT76G1 variant, mutations T284L_F314S_S357N (protein, UniProt Q6VAB4 1-458, looked up, variant T284L F314S S357N)
UDP-glycosyltransferase 76G1: B1 UDP-glycosyltransferase 76G1 with F314S, K342Q, S357N, Q397Y
B20: UGT76G1var31: UGT76G1 variant, mutations E224D_L243P_V300A (protein, UniProt Q6VAB4 1-458, looked up, variant E224D L243P V300A)
UDP-glycosyltransferase 76G1: B1 UDP-glycosyltransferase 76G1 with E224D, L243P, L284T, V300A, K342Q, Q397Y
B21: UGT76G1var47: UGT76G1 variant, mutations E229A_T284I_S389E (protein, UniProt Q6VAB4 1-458, looked up, variant E229A T284I S389E)
UDP-glycosyltransferase 76G1: B1 UDP-glycosyltransferase 76G1 with E229A, L284I, K342Q, S389E, Q397Y
B22: UGT76G1var38: UGT76G1 variant, mutations F41L_I295M_F377C (protein, UniProt Q6VAB4 1-458, looked up, variant F41L I295M F377C)
UDP-glycosyltransferase 76G1: B1 UDP-glycosyltransferase 76G1 with F41L, L284T, I295M, K342Q, F377C, Q397Y
B23: UGT76G1var44: UGT76G1 variant, mutations I335V_S375R_I407V (protein, UniProt Q6VAB4 1-458, looked up, variant I335V S375R I407V)
UDP-glycosyltransferase 76G1: B1 UDP-glycosyltransferase 76G1 with L284T, I335V, K342Q, S375R, Q397Y, I407V
B24: UGT76G1var40: UGT76G1 variant, mutations T263S_Q266E_S375R (protein, UniProt Q6VAB4 1-458, looked up, variant T263S Q266E S375R)
UDP-glycosyltransferase 76G1: B1 UDP-glycosyltransferase 76G1 with T263S, Q266E, L284T, K342Q, S375R, Q397Y
B25: UGT76G1var46: UGT76G1 variant, mutations F22L_Q266E_I295M (protein, UniProt Q6VAB4 1-458, looked up, variant F22L Q266E I295M)
UDP-glycosyltransferase 76G1: B1 UDP-glycosyltransferase 76G1 with F22L, Q266E, L284T, I295M, K342Q, Q397Y

experiment: Directed evolution of UGT76G1, conversion of Rebaudioside D to Rebaudioside M (round 1); type: biochemical; details: 0.5 mM Rebaudioside D, 2.5 mM UDP-Glucose, 100 μL fresh lysate, 30° C., pH 7.2
Source text: Starting from the amino acid sequence of UGT76G1, as is described in Genbank (AAR06912.1), different mutations at various amino acid positions were identified that could alter the activity of the enzyme for the transformation of Rebaudioside D (Reb D) to Rebaudioside M (Reb M). This list of mutations, designed by DNA2.0 ProteinGPS™ strategy, was subsequently used to synthesize 96 variant genes that contained 3, 4 or 5 of these mutations that were codon-optimized for expression in E. coli. The genes were subcloned in the pET30a+ plasmid and used for transformation of E. coli BL21 (DE3) chemically competent cells. The obtained cells were grown in Petri-dishes on solid LB medium in the presence of Kanamycin. Suitable colonies were selected and allowed to grow in liquid LB medium in tubes. Glycerol was added to the suspension as cryoprotectant and 400 μL aliquots were stored at −20° C. and at −80° C.
These storage aliquots of E. coli BL21(DE3) containing the pET30a+_UGT76G1var plasmids were thawed and added to LBGKP medium (20 g/L Luria Broth Lennox; 50 mM PIPES buffer pH 7.00; 50 mM Phosphate buffer pH 7.00; 2.5 g/L glucose and 50 mg/L of Kanamycine). This culture was allowed to shake in a 96 microtiter plate at 135 rpm at 30° C. for 8 h.
3.95 mL of production medium containing 60 g/L of Overnight Express™ Instant TB medium (Novagen®), 10 g/L of glycerol and 50 mg/L of Kanamycin was inoculated with 50 μL of above described culture. In a 48 deepwell plate the resulting culture was allowed to stir at 20° C. The cultures gave significant growth and a good OD (600 nm; 1 cm) was obtained. After 44 h, the cells were harvested by centrifugation and frozen.
Lysis was performed by addition of Bugbuster® Master mix (Novagen®) to the thawed cells and the lysate was recovered by centrifugation. Activity tests were performed with 100 μL of fresh lysate that was added to a solution of Rebaudioside D (final concentration 0.5 mM), MgCl2 (final concentration 3 mM) and UDP-Glucose (final concentration 2.5 mM) in 50 mM phosphate buffer pH 7.2.
The reaction was allowed to run at 30° C. and samples were taken after 2, 4, 7 and 24 h. to determine conversion and initial rate by HPLC (CAD detection) using the analytical method that was described above for the transformation of Rebaudioside D to Rebaudioside M. The results are depicted in the following table.

Molecule	Conversion Reb D to Reb M after 24 h (%)	initial rate (Reb M area/min)
B1	0.9%	6.3E+04 Reb M area/min
B2	7.2%	3.3E+06 Reb M area/min
B3	0.0%	−4.4E+04 Reb M area/min
B4	1.0%	7.5E+06 Reb M area/min
B5	13.6%	5.6E+06 Reb M area/min
B6	6.1%	2.4E+06 Reb M area/min
B7	34.6%	2.2E+07 Reb M area/min
B8	19.9%	9.4E+06 Reb M area/min
B9	51.8%	5.5E+07 Reb M area/min
B10	38.6%	2.3E+07 Reb M area/min
B11	1.8%	7.5E+05 Reb M area/min
B12	20.0%	8.8E+06 Reb M area/min
B13	49.3%	4.7E+07 Reb M area/min
B14	29.0%	1.5E+07 Reb M area/min
B15	3.4%	1.5E+06 Reb M area/min
B16	41.0%	2.9E+07 Reb M area/min
B17	0.8%	1.4E+06 Reb M area/min
B18	39.1%	2.8E+07 Reb M area/min
B19	0.5%	1.8E+05 Reb M area/min
B20	0.4%	2.4E+05 Reb M area/min
B21	4.8%	2.7E+06 Reb M area/min
B22	8.2%	3.7E+06 Reb M area/min
B23	35.3%	2.3E+07 Reb M area/min
B24	47.6%	3.3E+07 Reb M area/min
B25	0.6%	9.8E+05 Reb M area/min

From patent publication US20170275666A1, “Methods for Preparing Rebaudioside I and Uses” (The Coca-Cola Company, priority 2014, published 2017)
